Source: patent US20140044713A1 (KONINKLIJKE NEDERLANDSE AKADEMIE VAN WETENSCHAPPEN, published 2014)

T1: Lgr5-exo-Fc (leucine-rich-repeat exodomain of Lgr5, amino acids 1 to 546, human IgG-Fc fusion protein) (human, UniProt O75473 22-546)
T1 construct: range 1-546; also called LGR5-Fc; huLGR5-Fc; not shown: human IgG-Fc
T1 sequence (looked up): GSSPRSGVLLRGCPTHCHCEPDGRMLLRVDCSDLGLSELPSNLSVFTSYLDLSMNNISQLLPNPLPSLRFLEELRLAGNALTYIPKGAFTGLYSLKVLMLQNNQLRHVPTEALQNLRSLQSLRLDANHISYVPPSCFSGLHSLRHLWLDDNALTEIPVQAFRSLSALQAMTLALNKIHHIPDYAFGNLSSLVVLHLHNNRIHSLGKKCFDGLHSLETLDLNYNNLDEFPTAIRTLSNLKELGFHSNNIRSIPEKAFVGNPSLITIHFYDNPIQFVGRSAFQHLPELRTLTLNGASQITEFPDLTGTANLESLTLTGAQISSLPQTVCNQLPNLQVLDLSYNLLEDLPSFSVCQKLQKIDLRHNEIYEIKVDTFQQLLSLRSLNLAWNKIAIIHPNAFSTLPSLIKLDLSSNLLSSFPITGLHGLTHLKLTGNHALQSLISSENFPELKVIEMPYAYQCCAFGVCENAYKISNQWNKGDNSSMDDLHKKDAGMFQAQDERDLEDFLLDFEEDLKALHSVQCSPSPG


What was measured:
FLAG/HA-tagged Lgr4 = target: T2, FLAG/HA-tagged Lgr4 (human, UniProt Q9BXB1 25-951); experiment: TAP (anti-FLAG, anti-HA) + mass spectrometry, bait stably expressed in LS174T cells, Exp 2
T2 construct: whole, on cells; also called Lgr4 bait; FH-tagged human Lgr4; not shown: FLAG/HA double tag
Method: (§1) Left panel (Exps 1-7): HEK293T cells were transiently transfected, and LS174T cells were stably, transfected with the indicated tagged proteins. Right panel (Exps 8-9): HEK293T cells were incubated with the indicated tagged soluble proteins at 1 μg/ml. Sequential immunoprecipitation was performed by anti-FLAG and anti-HA antibodies and the associated complexes were analysed by mass spectrometry. Number of assigned spectra, number of unique peptides and the MASCOT Protein Score are given for selected identified proteins.

LRP5 (endogenous) = target: T3, LRP5 (endogenous) (human, UniProt O75197 32-1615); experiment: TAP (anti-FLAG, anti-HA) + mass spectrometry, 293T cells incubated with the soluble tagged bait, Exp 9
T3 construct: whole, on cells
T3 sequence (O75197 32-1615): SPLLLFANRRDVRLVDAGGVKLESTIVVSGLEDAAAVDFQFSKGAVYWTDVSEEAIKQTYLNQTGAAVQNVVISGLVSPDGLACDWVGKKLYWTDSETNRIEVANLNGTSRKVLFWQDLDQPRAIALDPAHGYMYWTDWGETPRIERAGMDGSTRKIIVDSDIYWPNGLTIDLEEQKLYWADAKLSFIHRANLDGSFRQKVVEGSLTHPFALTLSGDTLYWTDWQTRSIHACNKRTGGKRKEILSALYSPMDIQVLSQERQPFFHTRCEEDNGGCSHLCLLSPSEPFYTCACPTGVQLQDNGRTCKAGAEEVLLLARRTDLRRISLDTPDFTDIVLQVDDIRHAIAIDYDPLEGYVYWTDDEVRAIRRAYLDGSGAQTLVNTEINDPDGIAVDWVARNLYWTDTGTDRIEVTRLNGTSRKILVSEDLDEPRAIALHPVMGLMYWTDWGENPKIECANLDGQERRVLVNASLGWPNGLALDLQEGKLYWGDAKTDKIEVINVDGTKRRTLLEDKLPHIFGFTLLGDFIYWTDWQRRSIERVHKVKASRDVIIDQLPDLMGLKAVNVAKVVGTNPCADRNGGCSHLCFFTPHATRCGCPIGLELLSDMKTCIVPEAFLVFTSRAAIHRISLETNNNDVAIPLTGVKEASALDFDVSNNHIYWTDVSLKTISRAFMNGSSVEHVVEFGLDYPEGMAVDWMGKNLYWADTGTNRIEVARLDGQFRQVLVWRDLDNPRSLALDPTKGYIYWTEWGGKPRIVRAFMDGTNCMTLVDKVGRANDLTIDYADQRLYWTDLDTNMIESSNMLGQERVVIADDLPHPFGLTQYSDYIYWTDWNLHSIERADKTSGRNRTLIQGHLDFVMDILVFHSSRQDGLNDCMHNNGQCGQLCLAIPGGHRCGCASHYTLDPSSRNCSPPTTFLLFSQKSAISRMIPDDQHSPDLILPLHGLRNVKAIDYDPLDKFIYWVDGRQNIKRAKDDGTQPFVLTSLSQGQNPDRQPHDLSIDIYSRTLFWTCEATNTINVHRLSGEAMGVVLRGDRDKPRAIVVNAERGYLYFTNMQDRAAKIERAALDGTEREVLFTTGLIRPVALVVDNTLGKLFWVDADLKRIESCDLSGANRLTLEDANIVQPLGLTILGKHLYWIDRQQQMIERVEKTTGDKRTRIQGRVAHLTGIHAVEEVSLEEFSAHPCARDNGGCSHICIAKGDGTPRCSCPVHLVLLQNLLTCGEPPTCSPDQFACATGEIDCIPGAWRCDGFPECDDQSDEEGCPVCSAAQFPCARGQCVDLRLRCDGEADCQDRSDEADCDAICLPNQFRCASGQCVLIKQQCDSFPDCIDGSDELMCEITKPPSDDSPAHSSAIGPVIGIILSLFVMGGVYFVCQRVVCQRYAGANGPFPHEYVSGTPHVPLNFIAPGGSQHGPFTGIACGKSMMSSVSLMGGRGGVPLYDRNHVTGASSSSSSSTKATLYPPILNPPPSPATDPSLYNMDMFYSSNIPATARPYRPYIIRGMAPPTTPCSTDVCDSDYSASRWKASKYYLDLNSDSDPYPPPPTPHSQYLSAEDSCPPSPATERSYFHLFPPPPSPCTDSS
Method: as §1

LRP6 (endogenous) = target: T4, LRP6 (endogenous) (human, UniProt O75581 20-1613); experiment: as above
T4 construct: whole, on cells
T4 sequence (O75581 20-1613): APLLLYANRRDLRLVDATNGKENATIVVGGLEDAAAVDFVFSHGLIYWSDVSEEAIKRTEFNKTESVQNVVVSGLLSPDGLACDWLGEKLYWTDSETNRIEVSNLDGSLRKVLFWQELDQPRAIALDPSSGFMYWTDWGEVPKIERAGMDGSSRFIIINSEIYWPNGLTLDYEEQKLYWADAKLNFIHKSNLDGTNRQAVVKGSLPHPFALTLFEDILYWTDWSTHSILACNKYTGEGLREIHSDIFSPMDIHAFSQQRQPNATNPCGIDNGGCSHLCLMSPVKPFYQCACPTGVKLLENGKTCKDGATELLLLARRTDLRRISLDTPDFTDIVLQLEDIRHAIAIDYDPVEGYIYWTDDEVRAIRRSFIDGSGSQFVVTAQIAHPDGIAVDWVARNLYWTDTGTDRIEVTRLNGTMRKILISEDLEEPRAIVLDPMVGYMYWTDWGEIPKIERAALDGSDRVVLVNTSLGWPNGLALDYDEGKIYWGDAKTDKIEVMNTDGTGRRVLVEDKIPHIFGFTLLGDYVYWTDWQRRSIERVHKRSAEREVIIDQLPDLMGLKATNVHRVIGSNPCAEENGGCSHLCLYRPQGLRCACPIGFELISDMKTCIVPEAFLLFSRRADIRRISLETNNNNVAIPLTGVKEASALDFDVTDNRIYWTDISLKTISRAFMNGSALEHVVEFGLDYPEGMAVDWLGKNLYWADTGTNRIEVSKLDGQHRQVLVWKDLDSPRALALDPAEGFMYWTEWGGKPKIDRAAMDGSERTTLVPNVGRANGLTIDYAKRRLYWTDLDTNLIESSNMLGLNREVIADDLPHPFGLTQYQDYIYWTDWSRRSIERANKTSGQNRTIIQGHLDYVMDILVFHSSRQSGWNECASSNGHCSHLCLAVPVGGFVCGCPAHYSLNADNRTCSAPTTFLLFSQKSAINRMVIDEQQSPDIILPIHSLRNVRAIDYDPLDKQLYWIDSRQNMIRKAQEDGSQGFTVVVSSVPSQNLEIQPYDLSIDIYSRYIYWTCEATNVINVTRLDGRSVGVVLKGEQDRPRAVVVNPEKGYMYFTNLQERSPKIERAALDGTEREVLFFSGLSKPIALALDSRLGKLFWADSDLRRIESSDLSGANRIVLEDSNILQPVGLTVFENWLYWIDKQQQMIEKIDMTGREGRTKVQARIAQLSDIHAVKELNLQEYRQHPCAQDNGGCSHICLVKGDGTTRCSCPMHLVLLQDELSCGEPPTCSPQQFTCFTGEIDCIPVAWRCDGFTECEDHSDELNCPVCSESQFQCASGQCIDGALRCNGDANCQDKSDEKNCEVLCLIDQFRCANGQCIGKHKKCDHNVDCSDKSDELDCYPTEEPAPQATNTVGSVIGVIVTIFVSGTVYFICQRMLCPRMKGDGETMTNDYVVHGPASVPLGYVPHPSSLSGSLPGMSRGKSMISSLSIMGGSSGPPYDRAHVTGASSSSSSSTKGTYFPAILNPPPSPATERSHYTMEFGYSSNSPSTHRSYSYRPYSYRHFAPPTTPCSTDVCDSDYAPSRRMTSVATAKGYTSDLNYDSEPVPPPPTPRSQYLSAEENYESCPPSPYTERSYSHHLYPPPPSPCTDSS
Method: as §1

[1] = target: T1, Lgr5-exo-Fc (leucine-rich-repeat …); experiment: SPR array imaging (IBIS MX96), Rspo1-FH captured on anti-FLAG, LGR5-Fc at 45, 23 and 11 nM, 1:1 discrete interaction model
Text: This allowed us to perform a binding experiment using Surface Plasmon Resonance array imaging.

[2] = target: T1, Lgr5-exo-Fc (leucine-rich-repeat …); experiment: SPR array imaging (IBIS MX96), RSpo-1-FH captured on anti-Flag spots of decreasing density, 1:1 model, extrapolated to Rmax=0
Text: FIG. 15: Rspondin1-Lgr5 interaction KD determination by Surface Plasmon Resonance array imaging. […] In IBIS-SPRint software (version 2) an exponential fitting routine y=a*ebx was used for extrapolating the values of KD and kd at Rmax=0 (arrows).
Method: IBIS-SPRinT 2.0. An array of anti-Flag spots with decreasing densities was printed on a preactivated sensor surface (IBIS Technologies, Enschede, the Netherlands) using a continuous flow microspotter (CFM) (Wasatch Microfluidics, Utah, US).

binding result (FLAG/HA-tagged Lgr4) | binding result (LRP5 (endogenous)) | binding result (LRP6 (endogenous)) | Kd [1] [nM] | Kd [2] [nM] | koff [2] [s⁻¹] | kon [2] [M⁻¹ s⁻¹] | Binder
no binding |  |  |  |  |  |  | Frz6 (endogenous, LS174T cells) (receptor, human, UniProt O60353 19-706, looked up, whole, on cells) HSLFTCEPITVPRCMKMAYNMTFFPNLMGHYDQSIAAVEMEHFLPLANLECSPNIETFLCKAFVPTCIEQIHVVPPCRKLCEKVYSDCKKLIDTFGIRWPEELECDRLQYCDETVPVTFDPHTEFLGPQKKTEQVQRDIGFWCPRHLKTSGGQGYKFLGIDQCAPPCPNMYFKSDELEFAKSFIGTVSIFCLCATLFTFLTFLIDVRRFRYPERPIIYYSVCYSIVSLMYFIGFLLGDSTACNKADEKLELGDTVVLGSQNKACTVLFMLLYFFTMAGTVWWVILTITWFLAAGRKWSCEAIEQKAVWFHAVAWGTPGFLTVMLLAMNKVEGDNISGVCFVGLYDLDASRYFVLLPLCLCVFVGLSLLLAGIISLNHVRQVIQHDGRNQEKLKKFMIRIGVFSGLYLVPLVTLLGCYVYEQVNRITWEITWVSDHCRQYHIPCPYQAKAKARPELALFMIKYLMTLIVGISAVFWVGSKKTCTEWAGFFKRNRKRDPISESRRVLQESCEFFLKHNSKVKHKKKHYKPSSHKLKVISKSMGTSTGATANHGTSAVAITSHDYLGQETLTEIQTSPETSMREVKADGASTPRLREQDCGEPASPAASISRLSGEQVDGKGQAGSVSESARSEGRISPKSDITDTGLAQSNNLQVPSSSEPSSLKGSTSLLVHPVSGVRKEQGGGCHSDT
 | no binding (tested: 1 µg/ml) | no binding (tested: 1 µg/ml) | ~3 | 3.07 | 0.000155 | 50400 | double (FLAG-HA)-tagged version of human Rspo-1 (Rspo1-FH) (ligand, Used as HEK293T conditioned medium; also called huRSPO1-FH; not shown: FLAG-HA double tag) SRGIKGKRQRRISAEGSQACAKGCELCSEVNGCLKCSPKLFILLERNDIRQVGVCLPSCPPGYFDARNPDMNKCIKCKIEHCEACFSHNFCTKCKEGLYLHKGRCYPACPEGSSAANGTMECSSPAQCEMSEWSPWGPCSKKQQLCGFRRGSEERTRRVLHAPVGDHAACSDTKETRRCTVRRVPCPEGQKRRKGGQGRRENANRNLARKESKEAGAGSRRRKGQQQQQQQGTVGPLTSAGPA
